19 molecules from patent publication US20230212266A1 (FRED HUTCHINSON CANCER CENTER, published 2023) can be followed below.

The target in assay [1] is T1, SARS-CoV-2 receptor binding domain (RBD) (SARS-CoV-2, UniProt P0DTC2 319-591). Kind of assay: BLI; mAb loaded on anti-human Fc probe, dipped in antigen. (Biolayer interferometry detects binding as a change in optical thickness at a sensor tip.)
For assay [2], the target named is T1, SARS-CoV-2 receptor binding domain (RBD). Kind of assay: BLI: mAb on anti-human Fc probe, dipped in the antigen.
The target is the same in assay [3]. Described as above. The source holds these as a separate data set.
Assay [4] shares this target. Briefly: BLI, mAb on anti-human Fc probe, antigen in solution.
For assay [5] the target is unchanged. Kind of assay: BLI: mAb on anti-human Fc probe, dipped in the antigen. This is another data set of the same source.
Assay [6] has the same target. The assay is described as above. The source holds these as a separate data set.
For assay [7] the target is unchanged. Described as above. The source holds these as a separate data set.
Assay [8] shares this target. The description is as above. The source holds these as a separate data set.
For assay [9] the target is unchanged. Described as above. This is another data set of the same source.
The target is the same in assay [10]. Described as above. This is another data set of the same source.
Assay [11] shares this target. Briefly: BLI, mAb on anti-human Fc probe, antigen in solution. The source holds these as a separate data set.

Numbering of substitutions follows the chain as printed.

B1: CV2-71 (antibody, V domains shown)
VH: EVQLLESGGGLGQPGGSLRLSCAASGFTFSNYAMSWVRQAPGKGLEWVSVISGSGGSTYYADSVKGRFTISRDNSKNTLYLQMNSLRAEDTAVYYCAKAGAVGYYDSNGYYYDVDYYYGMDVWGQGTTVTVSS
VL: QSVLTQPPSVSGAPGQRVTISCTGSSSNIGAGYDVHWYQQLPGTAPKLLIYGNSNRPSGVPDRFSGSKSGTSASLAITGLQAEDEADYYCQSYDSSLSGYVFGTGTKVTVL
In the case of B1, the binding result in [1] was “binds”.

B2: CV2-52 (antibody, V domains shown)
VH: QVQLVESGGGVVQPGRSLRLSCAASGFTFSSYAMHWVRQAPGKGLEWVAVISYDGINKYYADSVKGRFTISRDSSKNTLYLQMNSLRAEDTAVYYCARGGVGYQLLFGNDWFDPWGQGTLVTVSS
VL: QSALTQPASVSGSPGQSITISCTGTSSDVGGYNYVSWYQQHPGKAPKLMIYEVSNRPSGVSNRFSGSKSGNTASLTISGLQAEDESDYYCSSYTTSSTLYVFGTGTKVTVL
On to B2, for which, in assay [2], the binding result is “no binding”.

B3: CV2-48 (antibody, V domains shown)
VH: QLQLQESGPGLVKPSETLSLTCTVSGGSISSSSYYWGWIRQPPGKGLEWIGNIYYSGITYYNPSLKSRVTISVDTSKNQFSLKLSSVTAADTAVYYCARQLWGYYDSSGYYAFDIWGQGTMVTVSS
VL: QSALTQPASVSGSPGQSITISCTGTSSDVGSYNLVSWYQQHPGKAPKLMIYEGSKRPSGVSNRFSGSKSGNTASLTISGLQAEDEAAYYCCSYVGSSTYVVFGGGTKLTVL
Regarding B3, the binding result in [3] is reported as “binds”.

B4: CV2-65 (antibody, V domains shown)
VH: QVQLQESGPGLVKPSETLSLTCTVSGGSISSYYWSWIRQPAGKGLEWIGRIYTSGSTNYNPSLKSRVTMSVDTSKNQFSLKLSSVTAADTAVYYCAREDSYGSGSTGAFDIWGQGTMVTVSS
VL: SYELTQPPSVSVSPGQTARITCSGDALPKQYAYWYQQKPGQAPVLVIYKDSERPSGIPERFSGSSSGTTVTLTISGVQAEDEADYYCQSADSSGTYVFGTGTKVTVL
Consider B4, for which, in assay [1], the binding result is “binds”.

B5: CV11 (antibody, V domains shown)
VH: QVQLQESGPGLVKPSQTLSLTCTVSGGSISSGGYYWSWIRQHPGKGLEWIGYIYYSGSTYYNPSLKSRVTISVDTSKNQFSLKLSSVTAADTAVYYCARETTGHFDYWGQGTLVTVSS
VL: EIVLTQSPATLSLSPGERATLSCRASQSVSSYLAWYQQKPGQAPRLLIYDASNRATGIPARFSGSGSGTDFTLTISSLEPEDFAVYYCQQRSNWPPIFTFGPGTKVDIK
For B5, in assay [4], the binding result was “no binding”.

B6: CV2-57 (antibody, V domains shown)
VH: QVQLVQSGAEVKKPGASVKVSCKASGYNFISYGISWVRQAPGQGLEWMGWISAYNGNTNYAQKLQGRVTMTTDTSTSTAYMELRSLRSDDTAVYYCARVRIFGVVIIVDTAMVLDYWGQGTLVTVSS
VL: B5 VL with I97R, F98L, P102G, D107E
As to B6, in assay [5], the binding result is listed as “no binding”.

B7: CV2-53 (antibody, V domains shown)
VH: QVQLVQSGAEVKKPGSSVKVSCKASGGTFTSYAITWVRQAPGQGLEWMGGIIPIFGTANYAQKFQGRVTITADESTSTAYMELSSLRSEDTAVYYCARVGAYDSSGYYQDLWGRGTLVTVSS
VL: B5 VL with I97V, F98I, P102Q, K105R, V106L, D107E
Take B7: the binding result in assay [6] was “no binding”.

B8: CV2-54 (antibody, V domains shown)
VH: B7 VH with T30S, A33T, T35S, K63N, G100S, A101Y, Q109T, L111Y, R114Q
VL: B5 VL with Y32F, S76N, I97E, F98Y, P102Q, V106L, D107E
Take B8: the binding result in assay [7] is reported as “no binding”.

B9: CV2-75 (antibody, V domains shown)
VH: QVQLQESGPGLVKPSETLSLTCTVSGGSISSYYWSWIRQPPGKGLEWIGYVYYSGSTNYNPSLKSRVTISVDTSKNEFSLKLSSVTAADTAVYYCASSQRPDGNLYYFDYWGQGTLVTVSS
VL: SYVLTQPPSVSVAPGQTARITCGGNNIGSKTVHWYQQKPGQAPVLVVYDDSDRPSGIPERFSGSNSGNTATLTISRVEAGDEADYYCQVWDSSSDHYVFGTGTKVTVL
As for B9, the binding result in assay [1] is given as “binds”.

B10: CV2-56 (antibody, V domains shown)
VH: QVQLVESGGGVVQPGNSLRLSCVASGFKFSSSAMHWVRQAPGKGLEWVAIIWFHGNTKFYGDFVKGRFTVSRDNSNNTLHLQMNSLRAEDTAVYHCARASSDYGGAFDIWGQGTMVTVSS
VL: EIVMTQSPATLSVSLGERATLSCRASQSVTSSLAWYQHKPGQAPRLLIYGASTRATGIPARFSGSGSGTEFTLTISSLQSEDFAVYFCQQYNNWPPWTFGQGTKVEVT
Turning to B10, the binding result in assay [8] is “no binding”.

B11: CV2-41 (antibody, V domains shown)
VH: QVQLQQWGAGLLKPSETLSLTCAVYGGSFSGYYWSWIRQPPGKGLEWIGEINHSGSTNYNPSLKSRVTISVDTSTNQFSLKLSSVTAADTAVYYCARRVHYDILTGFYGGALITRAFDIWGQGTMVTVSS
VL: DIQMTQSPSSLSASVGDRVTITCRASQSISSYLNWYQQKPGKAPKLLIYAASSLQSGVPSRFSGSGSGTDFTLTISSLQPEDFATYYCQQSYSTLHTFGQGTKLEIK
For B11, in assay [1], the binding result is recorded as “binds”.

B12: CV2-7 (antibody, V domains shown)
VH: EVQLVQSGAEVKKPGESLKISCKGSGNSFTSYWIGWVRQMPGKGLEWMGIIYPGDSDTRYSPSFQGQVTISADKSISTAYLQWSSLKASDTAMYYCARHRNYDILTGYRYYFDYWGQGTLVTVSS
VL: not shown
B12: the binding result in assay [1] is on record as “binds”.

B13: CV30 (antibody, V domains shown)
VH: EVQLVESGGGLIQPGGSLRLSCAASGVIVSSNYMSWVRQAPGKGLEWVSVIYSGGSTYYADSVKGRFTISRDNSKNTLYLQMNSLRAEDTAVYYCARDLDVSGGMDVWGQGTTVTVSS
VL: not shown
For B13, the binding result in assay [1] is listed as “binds”.

B14: CV2-58 (antibody, V domains shown)
VH: QVQLVQSGAEVKKPGSSVKVSCKASGGTFSSYAISWVRQAPGQGLEWMGRIIPILDITNYAQKFQGRVTITADKSTSTAYMELSSLRSEDTAVYYCARGLWRSSIAGLHVPYGMDVWGQGTTVTVSS
VL: QSVLTQPPSVSAAPGQKVTISCSGSSSNIGNNYVSWYQQLPGTAPQLLIYDNNKRPSRIPDRFSGSKSGTSATLGITGLQTGDEAVYYCGTWDSSLSAVVFGGGTKLTVL
Regarding B14, in assay [9], the binding result is reported as “no binding”.

B15: CV2-59 (antibody, V domains shown)
VH: QVQLVQSGAEVKKPGASVKVSCKVSGYTLTELSMHWVRQAPGKGLEWMGGFDPEDGETIYAQKFQGRVTMTEDTSTDTAYMELSSLRSEDTAVYYCATGPTVTTVTNWFDPWGQGTLVTVSS
VL: B14 VL with Q46K, R58G, V86D, V99E, G103T, L107V
With B15, the binding result in assay [10] is reported as “no binding”.

B16: CV43 (antibody, V domains shown)
VH: QVQLVESGGGVVQPGRSLRLSCAASGFTFSSYAMHWVRQAPGKGLEWVAVISYDGSNKYYADSVKGRFTISRDNSKNTLYLQMNSLRAEDTAVYYCARVTVVHFDYWGQGTLVTVSS
VL: NFMLTQPHSVSESPGKTVTISCTGSSGSIASNYVQWYQQRPGSAPTTVIYEDNQRPSGVPDRFSGSIDSSSNSASLTISGLKTEDEADYYCQSYDSSNWVFGGGTKLTVL
As for B16, the binding result in assay [1] is “binds”.

B17: CV2-66 (antibody, V domains shown)
VH: EVQLVESGGGLVQPGRSLRLSCTASGFTFGDYAMSWFRQAPGKGLEWVGFIRSKAYGGTTEYAASVKGRFTISRDDSKSIAYLQMNSLKTEDTAVYYCTRVHHCSGGSCYGYYFDYWGQGTLVTVSS
VL: EIVMTQSPATLSVSPGERATLSCRASQSVSSNLAWYQQKPGQAPRLLIYGASTRATGIPARFSGSGSGTEFTLTISSLQSEDFAVYYCQQYNNWVTFGGGTKVEIK
As to B17, the binding result in assay [1] is given as “binds”.

B18: CV5 (antibody, V domains shown)
VH: QVQLVQSGAEVKKPGASVKVTCKASGYTFTSYYLHWVRQAPGQGLEWMGIINPSGGTTSYAQKFQGRVTMTRDTSTSTVYMELSSLRSEDTAVYYCARAGRRYSSSDDGAFDIWGQGTMVTVSS
VL: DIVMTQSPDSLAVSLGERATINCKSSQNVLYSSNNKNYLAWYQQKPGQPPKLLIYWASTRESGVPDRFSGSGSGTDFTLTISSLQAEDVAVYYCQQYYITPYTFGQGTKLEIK
In the case of B18, the binding result in [1] is “binds”.

B19: CV1 (antibody, V domains shown)
VH: QVQLQESGPGLVKPSETLSLTCTVSGYSISSGYYWGWIRQPPGKGLEWIGSIYHSGSTYYNPSLKSRVTISVDTSKNQFSLKLSSVTAADTAVYYCARTPLSLRLRYNWYFDLWGRGTLVTVSS
VL: not shown
notes: expressed as IgG
With B19, the binding result in [11] is “no binding”.
